The values below are quoted from earlier work in article PMC3265123.

Where two headings read alike, the source gives them in different places.

The target in series [1] is gC1qR (Homo sapiens) (UniProt Q07021).
The target is the same in series [2]. The source holds these as a separate data set.

Chain of UniProt Q07021 (Q07021 74-282): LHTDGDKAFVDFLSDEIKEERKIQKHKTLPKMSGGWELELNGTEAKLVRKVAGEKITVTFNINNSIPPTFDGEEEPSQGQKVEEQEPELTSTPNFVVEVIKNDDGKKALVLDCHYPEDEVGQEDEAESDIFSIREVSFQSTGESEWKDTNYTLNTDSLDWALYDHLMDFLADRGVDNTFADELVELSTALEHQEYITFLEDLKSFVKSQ

One may read the Kd as a measure of binding affinity in units of concentration. With “high molecular weight kininogen (from UniProt P01042)”, the dissociation constant (Kd) with gC1qR (Homo sapiens) [1] is 0.8 nM; with gC1qR (Homo sapiens) [2] it was 9 nM.
